{
  "source": "the nanobody polyreactivity screen of Harvey et al. (2022)",
  "data": [
    {"assay": "yeast display, Sf9 membrane polyspecificity reagent, FACS + sequencing; frameworks hold sequencing errors", "method_in_brief": "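Galactose-induced (36–48 hours) yeast carrying a synthetic nanobody display library were exposed to 10% biotinylated, detergent-solubilized Sf9 membrane reagent at 4 °C for 1 hour. FACS followed streptavidin microbead enrichment, using low and high (top ~1%) gates for expression (anti-HA) and reagent binding (streptavidin). Colony PCR, MiSeq 2 × 250 sequencing and CDR-length filtering followed. Labels for polyreactivity reflect the gate of origin.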", "values": [
      {"sequence": "QVQLVESGGGLVQAGGSLRLSCAASGRIFPWYAMGWYRQAPGKERELVAAITSGGGSTSYADSVKGRFTISRDNAKNTVYLQMNRLKPEDTAVYYCAARRWISSHSYKYGYWGQGTQVTVSS", "polyreactivity (PSR sort gate)": "high polyreactivity"},
      {"sequence": "QVQLVESGGGLVQAGGSLRLSCAASGRIFPWYAMGWYRQAPGKERELVATISSSGRTNYADSVKGRFTISRDNAKNTVYLQLNSLQPEDTAVYFCAATLYHYWYADFDYWGQGTQVTVSS", "polyreactivity (PSR sort gate)": "high polyreactivity"},
      {"sequence": "QVQLVESGGGLVQAGGSLRLSCAASGRIFPYNAMGWYRQAAGKERELVAAISLSGDSTYYADSVKGRFTISRDNAKNTVFLHMNSLKPEDTAVYYCNAPSYWYYPVLGSFLTFEYWGQGTQVTVSS", "polyreactivity (PSR sort gate)": "low polyreactivity"},
      {"sequence": "QVQLVESGGGLVQAGGSLRLSCAASGRIFPYNAMGWYRQAPGKERELVAAISFGGGRTYYADSVKGRFTISRDNAKNTVYLQMNRLKPEDTAVYYCNTASPQDIVFRVFYGGDYWGQGTQVTVSS", "polyreactivity (PSR sort gate)": "low polyreactivity"},
      {"sequence": "QVQLVESGGGLVQAGGSLRLSCAASGRIFPYYAMGWYRQAPGKEREFVAAITKRGGSTSYADSVKGRFTISRDNAKNTVYLQMNSLKPEDTAVYYCAARRGSGIVTYYGGDYWGQGTQVTVSS", "polyreactivity (PSR sort gate)": "low polyreactivity"},
      {"sequence": "QVQLVESGGGLVQAGGSLRLSCAASGRIFPYYAMGWYRQAPGKERELVASIRYSAVNTYYADSVKGRFTISRDNAKNTVYVQMNSLKPEDTAVYYCWYTQNTLGNYWGQGTQVTVSS", "polyreactivity (PSR sort gate)": "low polyreactivity"},
      {"sequence": "QVQLVESGGGLVQAGGSLRLSCAASGRIFPYYAMGWYRQAPGKERELVATISTAGSTNYADSVKGRFTISRDNAKNTVYLQMNSMKPEDTAVYYCATRNTWYHRGYDFWGLGTQVTVSS", "polyreactivity (PSR sort gate)": "low polyreactivity"},
      {"sequence": "QVQLVESGGGLVQAGGSLRLSCAASGRIFPYYAMGWYRQAPGKVRELVASIRYSAGNTYYADSVKGRFTISRDNAKNTVYLQMNSLKPEDTAVYYCWYTQNTLGNYWGQGTQVTVSS", "polyreactivity (PSR sort gate)": "low polyreactivity"},
      {"sequence": "QVQLVESGGGLVQAGGSLRLSCAASGRIFPYYTMGWYRPAPGKERELVAAISRRGSSTYYADSVKGRFTISRDNAKNTVYLQMNSLKPEDTAVYFCAADRGGYTRTGEYDYWGQGTQVTVSS", "polyreactivity (PSR sort gate)": "high polyreactivity"},
      {"sequence": "QVQLVESGGGLVQAGGSLRLSCAASGRIFQDYAMGWYRQATGKERELVAAITWSGGRTYYADSVKGRFTISRDNAKNTVYLQMNSLKPEDTAVYYCNRLTQSRLYYGPREYYYWGQGTQVTVSS", "polyreactivity (PSR sort gate)": "high polyreactivity"},
      {"sequence": "QVQLVESGGGLVQAGGSLRLSCAASGRIFQHNTMGWYRQAPGKERELVAAITRGGRTNYADSVKGRFTISRDNAKNTVYLQMNSLKPEDTAVYYCAARYVERHTDYYYWGQGTQVTVSS", "polyreactivity (PSR sort gate)": "low polyreactivity"},
      {"sequence": "QVQLVESGGGLVQAGGSLRLSCAASGRIFQLYTMGWYIQAPGKERELVAAITSGTSTSYADSVKGRFTISRDNAKNTVYLQMNSLKPEDTAVYYCNKGSVSYSSVFVPYESDYWGQGTQVTVSS", "polyreactivity (PSR sort gate)": "low polyreactivity"},
      {"sequence": "QVQLVESGGGLVQAGGSLRLSCAASGRIFQPNAMGWYRQAPGKEREFVAAISSSGGYTFYADSVKGRFTISRDNAKNTVYLQMNSLKPEDTAVYYCAKRYGYTEYFYWGQGSQVTVSS", "polyreactivity (PSR sort gate)": "high polyreactivity"},
      {"sequence": "QVQLVESGGGLVQAGGSLRLSCAASGRIFQQYALGWYRQAPGKEREWVAVITYRAGRTHYADSVKGRFTISRDNAKNTVYLQMNSLKPEDTAVYYCAAGRYYAVWQSISGFDSWGQGTQVTVSS", "polyreactivity (PSR sort gate)": "low polyreactivity"},
      {"sequence": "QVQLVESGGGLVQAGGSLRLSCAASGRIFQRNTMGWYRQAPGKERELVAAITWNGGSTYYADSVKGRFTISRDNAKNTVFLQMNSMKPEDTAVDYCATAYRYSVHKALGFNYWGQGTQVTVSS", "polyreactivity (PSR sort gate)": "high polyreactivity"},
      {"sequence": "QVQLVESGGGLVQAGGSLRLSCAASGRIFQRYAMGWYRPAPGKERELVAAISSRGGRTFYADSVKGRFTISRDNAMYSVYLQMNSLKPEDSAAYYCAATATVGSVTFDYWGQGTQVSVSS", "polyreactivity (PSR sort gate)": "high polyreactivity"},
      {"sequence": "QVQLVESGGGLVQAGGSLRLSCAASGRIFQRYAMGWYRQAPGKERELVAGITSSGGSTYYADSVKGRFTISRDNAKNTVYLQMNSLKPEDTAVYYCNAGGELRYYGYRAGGTTRSYDYWGQGTQVTVSS", "polyreactivity (PSR sort gate)": "low polyreactivity"},
      {"sequence": "QVQLVESGGGLVQAGGSLRLSCAASGRIFQTNVMGWYRQAPGKEKELVAAISYRGGTTYYEDSVKARFTISRDNAQNTVYLPMYSLYPEDTAVYYCAALHYRIRRTGMDYWGQGTQVTVSS", "polyreactivity (PSR sort gate)": "low polyreactivity"},
      {"sequence": "QVQLVESGGGLVQAGGSLRLSCAASGRIFQTYAMGWYRQAPGKERDLVASITSGVDTYYADSVKGRFTISRDNAKNTVYLQMNSLKPEDNAVYYCAAEPYRTVTAYRYSLYWYNYWGQGTQVTVSS", "polyreactivity (PSR sort gate)": "high polyreactivity"},
      {"sequence": "QVQLVESGGGLVQAGGSLRLSCAASGRIFQWYAMGWYRQAPGKERELVAAIRNGGTTNYADSVKGRFTISRDNAKNTVYLQMNSLKPEDTAVYYCNADKYRTWVFQPRYPGGYWGQGTQVTVSS", "polyreactivity (PSR sort gate)": "low polyreactivity"},
      {"sequence": "QVQLVESGGGLVQAGGSLRLSCAASGRIFQYNAMGWYRQAPGKEREFVAAIRRGGGSTYYADSVKGRFTISRDNAKNTVYLQMNSLKPEDTAVYYCAARRKRVSFYPEYDYWGQGTQVTVSS", "polyreactivity (PSR sort gate)": "low polyreactivity"},
      {"sequence": "QVQLVESGGGLVQAGGSLRLSCAASGRIFQYNAMGWYRQATGKERELVAAITWSSGSTYYADSVKGRFTISRDNAKNTVYLQMNSLKPEDTAVYYCNTVRVLYYDRQFLFRGSRFGYWGQGTQVTVSS", "polyreactivity (PSR sort gate)": "high polyreactivity"},
      {"sequence": "QVQLVESGGGLVQAGGSLRLSCAASGRIFQYNVIGWYRQARWKERELVAAISSGGNTYYADSVKGRFTISRDNAKNTVYLQMNSLKPEDTSFYYCAADHYVPWPNYDYDYWGQGTQETVSS", "polyreactivity (PSR sort gate)": "low polyreactivity"},
      {"sequence": "QVQLVESGGGLVQAGGSLRLSCAASGRIFQYYAMGRYGQAPGKERELVARISSRGGSTYYADSVKGRFTISRDNAKNTVYLQMNSLKPEDTAVYYCNTRWYSSYYQPSYNYWGQGTQVTVSS", "polyreactivity (PSR sort gate)": "high polyreactivity"},
      {"sequence": "QVQLVESGGGLVQAGGSLRLSCAASGRIFQYYAMGWYRQAPGKERELVAAINSSGGRTYYADSVKGRFTISRDTAKNTVYLQMNSLTPEDTAVNSCNAVLSTRGMDYWGQGTQVTVSS", "polyreactivity (PSR sort gate)": "high polyreactivity"},
      {"sequence": "QVQLVESGGGLVQAGGSLRLSCAASGRIFRAYTMGWYRQAPGKERELVAAISGSGTSTYYADSVKGRFTISRDNAKNTVYLQMNSLKPEDTAVYYCAAPSLSGYGYEYWGQGTQVTVSS", "polyreactivity (PSR sort gate)": "high polyreactivity"},
      {"sequence": "QVQLVESGGGLVQAGGSLRLSCAASGRIFRDYDMGWYRQAPGKERELVASISTRGGSTYADSVKGRFTISRDNAKNTVYLQMNSLKPEDTAVYYCAADSSGFSRYDYWGQGSQVTVSS", "polyreactivity (PSR sort gate)": "low polyreactivity"},
      {"sequence": "QVQLVESGGGLVQAGGSLRLSCAASGRIFRFNAMGWYRQAPGKERELVAAITGSGGTTFYADSVKGRFTISRDNAKNTVYLQMNSLKPEDTAVYYCNTLGNWRPVYNQPRYEYWGQGTQVTVSS", "polyreactivity (PSR sort gate)": "high polyreactivity"},
      {"sequence": "QVQLVESGGGLVQAGGSLRLSCAASGRIFRFYAMGWYRQAPGKERELVAAISSRGGSTYDADSVKGRFTISRDNAKNTVYLQMNSLKPEDTAVYYCNAYGSTSQMDYWGQGTQVTVSS", "polyreactivity (PSR sort gate)": "high polyreactivity"},
      {"sequence": "QVQLVESGGGLVQAGGSLRLSCAASGRIFRFYAMGWYRQAPGKERELVAAISWRGGRTYYADSVKGRFTISRDNAKNTVYVQMNSLKPEDTAVYYCNADKYETSGWKYVSWGQGTQVTVSS", "polyreactivity (PSR sort gate)": "low polyreactivity"},
      {"sequence": "QVQLVESGGGLVQAGGSLRLSCAASGRIFRFYAMGWYRQAPGKERELVAAITYGGGTTYYADSVKGRFTISRDNAKNTVYLQMNSLKPEDTAVYYCAADHRQGYDHEYDYWGQGTQVTVSS", "polyreactivity (PSR sort gate)": "low polyreactivity"},
      {"sequence": "QVQLVESGGGLVQAGGSLRLSCAASGRIFRFYAMGWYRQAPGKERELVAGITYSGGSTFYADSVKGRFTISRDNAKNTVYLQMNSLKPEDTAVYYCAAVYVPYYWLGRSRGLDYWGQGTQVTVSS", "polyreactivity (PSR sort gate)": "high polyreactivity"},
      {"sequence": "QVQLVESGGGLVQAGGSLRLSCAASGRIFRFYAMGWYRQAPRKERELVAAITSGGSTYYADSVKGRFTISRDNAKNTVYLQMNSLKPEDTAVYYCANYYWGQGTQVTVSS", "polyreactivity (PSR sort gate)": "low polyreactivity"},
      {"sequence": "QVQLVESGGGLVQAGGSLRLSCAASGRIFRGNAMGWSRQAPGKERELVAGISVRGGRTYYADSVKGRFTISRDNAKNTVYLQMNSLKPEDTAVYYCAAVFWDDYGKYYYWGQGTQVTVSS", "polyreactivity (PSR sort gate)": "high polyreactivity"},
      {"sequence": "QVQLVESGGGLVQAGGSLRLSCAASGRIFRGNAMGWYRQAPGKERELVAAINYSGGSTYYADSVKGRFTISRDNAKNTVYLQMNSLKPEDTAVYYCAAEPGQYGWYYGYGYWGQGTQVTVSS", "polyreactivity (PSR sort gate)": "high polyreactivity"},
      {"sequence": "QVQLVESGGGLVQAGGSLRLSCAASGRIFRGNTMGWYRQAPGKERELVAAITIRGRTYYADSVKGRFTISRDNAKNTVYLQMNSLKPEDTAVYYCAVASAGDNDYWGQGTQVTVSS", "polyreactivity (PSR sort gate)": "low polyreactivity"},
      {"sequence": "QVQLVESGGGLVQAGGSLRLSCAASGRIFRGYAMAWYRQAPGKERELVAAISGRGGRTNYADSVKGRFTISRDNAKNTVYLQMNSLKPEDTAVYYCATVPYTASRYEYWGQGTQVTVSS", "polyreactivity (PSR sort gate)": "high polyreactivity"},
      {"sequence": "QVQLVESGGGLVQAGGSLRLSCAASGRIFRGYAMGWYRQAPGKEREFVAAITKNGGSTYYADSVKGRFTISRDNAKNTVYLQMNSLKPEDTAVYYCNAGTFTRRRGLDYWGQGTQVTVSS", "polyreactivity (PSR sort gate)": "low polyreactivity"},
      {"sequence": "QVQLVESGGGLVQAGGSLRLSCAASGRIFRGYAMGWYRQAPGKERELVAAIDRVGRTKYADSVKGRFTISRDNAKNTVYLQMNSLKPEDTAVYYCAAKASRVDWGYGYWGQGTQVTVSS", "polyreactivity (PSR sort gate)": "high polyreactivity"},
      {"sequence": "QVQLVESGGGLVQAGGSLRLSCAASGRIFRGYAMGWYRQAPGKERELVAAISGSGGSTYYADSVKGRFTISRDNAKNTVYLQMNSLKPEDTAVYYCAADQQSTGDWAGDYWGQGTQVTVSS", "polyreactivity (PSR sort gate)": "low polyreactivity"}
    ]}
  ]
}
